Laboratory results as given in patent US20180155451A1 (published 2018).

T1: FcγRIIb extracellular domain with C-terminal His tag (human, UniProt P31994 43-217)
T1 construct: extracellular domain; also called FcgRIIb; 2b; not shown: His tag at the C terminus
T1 sequence (looked up): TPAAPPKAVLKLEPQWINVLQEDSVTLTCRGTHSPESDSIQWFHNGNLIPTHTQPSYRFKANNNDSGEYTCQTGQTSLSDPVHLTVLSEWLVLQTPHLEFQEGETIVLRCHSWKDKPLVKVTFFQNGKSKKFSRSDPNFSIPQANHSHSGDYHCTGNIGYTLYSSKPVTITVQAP

B1: GpH7-A5/GpH7-B3 variant P238_13S/GpL16-k0 (heterodimerized antibody, He Ab) (antibody, human IgG1, kappa)
heavy 1: not shown
heavy 2: not shown
light: DIVMTQSPLSLPVTPGEPASISCQASESLVHSNRNTYLHWYLQKPGQSPQLLIYKVSNRFSGVPDRFSGSGSGTDFTLKISRVEAEDVGVYYCSQNTHVPPTFGQGTKVEIERTVAAPSVFIFPPSDEQLKSGTASVVCLLNNFYPREAKVQWKVDNALQSGNSQESVTEQDSKDSTYSLSSTLTLSKADYEKHKVYACEVTHQGLSSPVTKSFNRGEC
notes: Anti-glypican-3 IgG1; the alteration is in the GpH7-B3 chain only; also called P238S
B2: GpH7-B3 variant (T335_04F)/GpL16-k0 (antibody, human IgG1, kappa)
heavy: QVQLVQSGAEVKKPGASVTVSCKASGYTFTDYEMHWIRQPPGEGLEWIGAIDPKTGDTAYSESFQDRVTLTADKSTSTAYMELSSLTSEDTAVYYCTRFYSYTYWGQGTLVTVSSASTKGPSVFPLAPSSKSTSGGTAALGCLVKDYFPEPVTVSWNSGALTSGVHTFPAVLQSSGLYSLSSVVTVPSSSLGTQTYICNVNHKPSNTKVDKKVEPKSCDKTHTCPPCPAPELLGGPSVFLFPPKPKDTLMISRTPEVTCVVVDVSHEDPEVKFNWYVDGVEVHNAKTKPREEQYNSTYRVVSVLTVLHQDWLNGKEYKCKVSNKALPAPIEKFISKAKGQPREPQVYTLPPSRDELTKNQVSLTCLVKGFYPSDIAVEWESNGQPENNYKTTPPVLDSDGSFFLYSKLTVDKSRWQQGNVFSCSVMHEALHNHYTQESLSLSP
light: B1 light
notes: Homodimerized; both H chains altered; also called Ho Ab T335_04F
B3: GpH7-B3 variant (T335_05P)/GpL16-k0 (antibody, human IgG1, kappa)
heavy: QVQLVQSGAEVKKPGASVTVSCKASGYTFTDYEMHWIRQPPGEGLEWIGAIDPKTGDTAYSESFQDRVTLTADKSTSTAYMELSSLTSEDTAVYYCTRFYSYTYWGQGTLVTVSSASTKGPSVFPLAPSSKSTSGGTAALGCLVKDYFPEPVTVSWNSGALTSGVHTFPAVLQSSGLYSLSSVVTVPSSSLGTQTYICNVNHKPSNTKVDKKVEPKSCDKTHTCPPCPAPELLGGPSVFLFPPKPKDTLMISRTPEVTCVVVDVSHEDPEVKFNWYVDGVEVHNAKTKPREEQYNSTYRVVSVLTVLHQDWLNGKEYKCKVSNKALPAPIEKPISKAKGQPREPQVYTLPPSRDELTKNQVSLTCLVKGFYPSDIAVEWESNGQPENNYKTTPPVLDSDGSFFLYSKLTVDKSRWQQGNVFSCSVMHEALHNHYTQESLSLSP
light: B1 light
notes: Homodimerized; both H chains altered; also called Ho Ab T335_05P
B4: GpH7-B3 variant (D265_10E)/GpL16-k0 (antibody, human IgG1, kappa)
heavy: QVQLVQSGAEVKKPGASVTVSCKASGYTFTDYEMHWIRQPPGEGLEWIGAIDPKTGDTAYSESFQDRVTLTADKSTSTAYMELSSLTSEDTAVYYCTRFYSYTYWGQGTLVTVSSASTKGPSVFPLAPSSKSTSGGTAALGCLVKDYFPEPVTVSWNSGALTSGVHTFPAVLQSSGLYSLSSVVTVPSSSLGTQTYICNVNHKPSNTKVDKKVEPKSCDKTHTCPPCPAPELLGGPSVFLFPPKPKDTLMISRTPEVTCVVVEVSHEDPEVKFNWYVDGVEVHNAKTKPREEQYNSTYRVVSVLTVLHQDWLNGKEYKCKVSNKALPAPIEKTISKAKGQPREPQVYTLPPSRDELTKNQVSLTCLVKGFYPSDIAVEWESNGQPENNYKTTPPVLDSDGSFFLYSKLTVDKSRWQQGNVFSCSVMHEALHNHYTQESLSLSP
light: B1 light
notes: Homodimerized; both H chains altered; also called Ho Ab D265_10E
B5: GpH7-A5/GpH7-B3 variant S267_10E/GpL16-k0 (heterodimerized antibody, He Ab) (antibody, human IgG1, kappa)
heavy 1: not shown
heavy 2: not shown
light: B1 light
notes: Anti-glypican-3 IgG1; the alteration is in the GpH7-B3 chain only; also called S267E
B6: GpH7-A5/GpH7-B3 variant S239_03V/GpL16-k0 (heterodimerized antibody, He Ab) (antibody, human IgG1, kappa)
heavy 1: not shown
heavy 2: not shown
light: B1 light
notes: Anti-glypican-3 IgG1; the alteration is in the GpH7-B3 chain only; also called S239V
B7: GpH7-B3 variant (H268_10E)/GpL16-k0 (antibody, human IgG1, kappa)
heavy: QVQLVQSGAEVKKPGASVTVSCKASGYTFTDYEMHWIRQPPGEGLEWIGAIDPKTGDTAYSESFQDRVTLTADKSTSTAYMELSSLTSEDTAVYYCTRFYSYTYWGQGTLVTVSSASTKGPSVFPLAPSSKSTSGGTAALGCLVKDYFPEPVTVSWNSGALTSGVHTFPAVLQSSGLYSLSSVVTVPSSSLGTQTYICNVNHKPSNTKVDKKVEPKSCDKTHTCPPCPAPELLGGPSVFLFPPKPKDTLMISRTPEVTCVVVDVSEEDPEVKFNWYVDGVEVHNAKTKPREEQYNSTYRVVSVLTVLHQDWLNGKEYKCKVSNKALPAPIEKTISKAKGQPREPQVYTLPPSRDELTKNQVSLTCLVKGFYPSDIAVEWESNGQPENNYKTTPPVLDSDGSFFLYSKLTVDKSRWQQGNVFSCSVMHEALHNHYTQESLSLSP
light: B1 light
notes: Homodimerized; both H chains altered; also called Ho Ab H268_10E
B8: GpH7-A5/GpH7-B3 variant P238_16H/GpL16-k0 (heterodimerized antibody, He Ab) (antibody, human IgG1, kappa)
heavy 1: not shown
heavy 2: not shown
light: B1 light
notes: Anti-glypican-3 IgG1; the alteration is in the GpH7-B3 chain only; also called P238H
B9: GpH7-B3 variant (S337_19Q)/GpL16-k0 (antibody, human IgG1, kappa)
heavy: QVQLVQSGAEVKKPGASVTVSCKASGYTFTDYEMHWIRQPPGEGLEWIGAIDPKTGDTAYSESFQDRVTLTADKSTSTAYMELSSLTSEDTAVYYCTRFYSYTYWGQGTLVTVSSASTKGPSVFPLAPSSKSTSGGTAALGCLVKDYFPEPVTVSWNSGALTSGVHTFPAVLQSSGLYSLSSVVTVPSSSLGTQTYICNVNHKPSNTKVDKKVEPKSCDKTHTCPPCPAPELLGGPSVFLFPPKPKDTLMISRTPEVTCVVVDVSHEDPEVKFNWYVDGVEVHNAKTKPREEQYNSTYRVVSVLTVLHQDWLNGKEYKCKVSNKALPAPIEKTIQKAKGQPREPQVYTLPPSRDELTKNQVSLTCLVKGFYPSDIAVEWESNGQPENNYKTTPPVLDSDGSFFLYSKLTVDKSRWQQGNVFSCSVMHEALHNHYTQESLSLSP
light: B1 light
notes: Homodimerized; both H chains altered; also called Ho Ab S337_19Q
B10: GpH7-B3 variant (I336_09D)/GpL16-k0 (antibody, human IgG1, kappa)
heavy: not shown
light: B1 light
notes: Homodimerized; both H chains altered; also called Ho Ab I336_09D
B11: GpH7-B3 variant (H268_01G)/GpL16-k0 (antibody, human IgG1, kappa)
heavy: not shown
light: B1 light
notes: Homodimerized; both H chains altered; also called Ho Ab H268_01G
B12: GpH7-B3 variant (A330_10E)/GpL16-k0 (antibody, human IgG1, kappa)
heavy: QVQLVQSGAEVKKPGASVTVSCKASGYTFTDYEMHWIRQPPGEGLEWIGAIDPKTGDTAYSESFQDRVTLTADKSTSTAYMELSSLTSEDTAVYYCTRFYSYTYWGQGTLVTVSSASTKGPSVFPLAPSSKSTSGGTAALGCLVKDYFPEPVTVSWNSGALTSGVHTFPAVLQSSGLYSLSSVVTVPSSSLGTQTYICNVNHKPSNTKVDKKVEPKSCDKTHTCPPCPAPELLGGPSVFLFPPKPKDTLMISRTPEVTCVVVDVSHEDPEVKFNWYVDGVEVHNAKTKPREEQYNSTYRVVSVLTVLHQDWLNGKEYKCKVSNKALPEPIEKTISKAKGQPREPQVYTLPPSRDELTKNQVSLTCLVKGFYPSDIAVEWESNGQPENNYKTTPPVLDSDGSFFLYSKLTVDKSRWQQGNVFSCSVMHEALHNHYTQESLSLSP
light: B1 light
notes: Homodimerized; both H chains altered; also called Ho Ab A330_10E
B13: GpH7-B3 variant (S337_20W)/GpL16-k0 (antibody, human IgG1, kappa)
heavy: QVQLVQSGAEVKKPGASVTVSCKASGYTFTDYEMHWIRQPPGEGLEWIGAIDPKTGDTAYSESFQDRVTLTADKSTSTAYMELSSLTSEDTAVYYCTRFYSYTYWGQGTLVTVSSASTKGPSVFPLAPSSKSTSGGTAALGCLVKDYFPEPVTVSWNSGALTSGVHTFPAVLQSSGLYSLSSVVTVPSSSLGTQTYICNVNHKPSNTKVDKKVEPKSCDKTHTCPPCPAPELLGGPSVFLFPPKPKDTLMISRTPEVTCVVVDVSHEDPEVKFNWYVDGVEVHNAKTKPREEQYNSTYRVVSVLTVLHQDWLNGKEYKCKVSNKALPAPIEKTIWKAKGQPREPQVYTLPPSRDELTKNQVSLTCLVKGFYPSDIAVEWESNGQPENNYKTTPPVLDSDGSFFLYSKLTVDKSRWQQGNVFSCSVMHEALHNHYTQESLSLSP
light: B1 light
notes: Homodimerized; both H chains altered; also called Ho Ab S337_20W
B14: GpH7-B3 variant (I336_11K)/GpL16-k0 (antibody, human IgG1, kappa)
heavy: not shown
light: B1 light
notes: Homodimerized; both H chains altered; also called Ho Ab I336_11K
B15: GpH7-A5/GpH7-B3 variant S267_06M/GpL16-k0 (heterodimerized antibody, He Ab) (antibody, human IgG1, kappa)
heavy 1: not shown
heavy 2: not shown
light: B1 light
notes: Anti-glypican-3 IgG1; the alteration is in the GpH7-B3 chain only; also called S267M
B16: GpH7-A5/GpH7-B3 variant S267_01G/GpL16-k0 (heterodimerized antibody, He Ab) (antibody, human IgG1, kappa)
heavy 1: not shown
heavy 2: not shown
light: B1 light
notes: Anti-glypican-3 IgG1; the alteration is in the GpH7-B3 chain only; also called S267G
B17: GpH7-B3 variant (A330_04F)/GpL16-k0 (antibody, human IgG1, kappa)
heavy: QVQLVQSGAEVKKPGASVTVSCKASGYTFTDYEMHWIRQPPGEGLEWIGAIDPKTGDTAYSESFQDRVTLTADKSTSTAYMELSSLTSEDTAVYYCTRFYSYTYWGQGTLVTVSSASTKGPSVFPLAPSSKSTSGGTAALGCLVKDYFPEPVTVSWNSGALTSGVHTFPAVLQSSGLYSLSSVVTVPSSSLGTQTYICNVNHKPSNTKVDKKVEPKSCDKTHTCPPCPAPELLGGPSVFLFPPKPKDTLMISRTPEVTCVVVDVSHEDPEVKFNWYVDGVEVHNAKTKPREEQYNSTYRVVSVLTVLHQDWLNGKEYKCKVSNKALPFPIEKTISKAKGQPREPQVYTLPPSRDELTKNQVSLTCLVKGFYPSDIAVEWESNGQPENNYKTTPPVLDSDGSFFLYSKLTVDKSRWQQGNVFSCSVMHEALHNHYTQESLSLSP
light: B1 light
notes: Homodimerized; both H chains altered; also called Ho Ab A330_04F
B18: GpH7-B3 variant (S337_04F)/GpL16-k0 (antibody, human IgG1, kappa)
heavy: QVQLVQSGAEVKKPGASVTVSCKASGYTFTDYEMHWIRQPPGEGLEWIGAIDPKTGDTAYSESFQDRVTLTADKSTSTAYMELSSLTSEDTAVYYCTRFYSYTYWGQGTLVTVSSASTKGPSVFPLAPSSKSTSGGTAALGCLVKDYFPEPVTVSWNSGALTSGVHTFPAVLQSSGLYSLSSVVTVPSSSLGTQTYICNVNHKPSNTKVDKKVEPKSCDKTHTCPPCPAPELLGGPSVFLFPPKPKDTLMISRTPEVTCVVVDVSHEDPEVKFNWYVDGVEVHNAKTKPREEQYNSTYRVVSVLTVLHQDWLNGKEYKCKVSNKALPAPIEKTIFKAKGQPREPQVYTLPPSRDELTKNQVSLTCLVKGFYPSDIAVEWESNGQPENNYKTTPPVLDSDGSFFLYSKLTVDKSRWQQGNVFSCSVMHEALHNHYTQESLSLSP
light: B1 light
notes: Homodimerized; both H chains altered; also called Ho Ab S337_04F
B19: GpH7-B3 variant (S337_06M)/GpL16-k0 (antibody, human IgG1, kappa)
heavy: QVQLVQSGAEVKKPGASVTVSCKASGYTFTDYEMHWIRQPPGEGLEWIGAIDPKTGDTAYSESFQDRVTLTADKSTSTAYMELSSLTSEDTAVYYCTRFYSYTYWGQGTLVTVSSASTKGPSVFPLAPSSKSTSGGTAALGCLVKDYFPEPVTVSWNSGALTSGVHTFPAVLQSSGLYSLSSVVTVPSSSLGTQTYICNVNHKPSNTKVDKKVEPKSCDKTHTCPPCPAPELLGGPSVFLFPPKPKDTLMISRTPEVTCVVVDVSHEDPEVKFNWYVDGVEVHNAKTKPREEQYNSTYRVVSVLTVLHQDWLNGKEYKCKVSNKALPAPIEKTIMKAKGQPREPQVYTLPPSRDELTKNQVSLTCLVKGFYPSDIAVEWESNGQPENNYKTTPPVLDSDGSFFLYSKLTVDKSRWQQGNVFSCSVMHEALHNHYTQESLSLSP
light: B1 light
notes: Homodimerized; both H chains altered; also called Ho Ab S337_06M
B20: GpH7-B3 variant (H268_09D)/GpL16-k0 (antibody, human IgG1, kappa)
heavy: not shown
light: B1 light
notes: Homodimerized; both H chains altered; also called Ho Ab H268_09D
B21: GpH7-A5/GpH7-B3 variant P238_19Q/GpL16-k0 (heterodimerized antibody, He Ab) (antibody, human IgG1, kappa)
heavy 1: not shown
heavy 2: not shown
light: B1 light
notes: Anti-glypican-3 IgG1; the alteration is in the GpH7-B3 chain only; also called P238Q
B22: GpH7-A5/GpH7-B3 variant S239_08L/GpL16-k0 (heterodimerized antibody, He Ab) (antibody, human IgG1, kappa)
heavy 1: not shown
heavy 2: not shown
light: B1 light
notes: Anti-glypican-3 IgG1; the alteration is in the GpH7-B3 chain only; also called S239L
B23: GpH7-B3 variant (A330_01G)/GpL16-k0 (antibody, human IgG1, kappa)
heavy: not shown
light: B1 light
notes: Homodimerized; both H chains altered; also called Ho Ab A330_01G

What was measured:
[1] = molecular target: T2, FcγRIIIa extracellular domain with C-terminal His tag (human, UniProt P08637 17-208); assay: SPR (Biacore), captured antibody, FcγR as analyte; relative to GpH7-A5/GpH7-B3/GpL16-k0 = 100
T2 construct: extracellular domain; also called FcgRIIIa; 3a; not shown: His tag at the C terminus
T2 sequence (P08637 17-208): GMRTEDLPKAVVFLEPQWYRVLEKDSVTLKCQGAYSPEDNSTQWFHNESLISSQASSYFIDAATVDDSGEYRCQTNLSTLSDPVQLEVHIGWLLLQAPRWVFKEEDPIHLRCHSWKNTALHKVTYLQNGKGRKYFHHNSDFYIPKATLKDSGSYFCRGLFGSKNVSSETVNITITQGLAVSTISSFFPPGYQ
Method: (§1) Analysis of interaction between objective antibody and the FcγR was carried out using Biacore T100 (GE Healthcare). HBS-EP+ (GE Healthcare) was used as the running buffer, and the measurement temperature was set to 25° C. Chips produced by immobilizing the antigen peptide by the amine coupling method to a Series S Sencor Chip CM5 (GE Healthcare), or alternatively, chips produced by allowing preliminarily biotinylated antigen peptides to interact with and immobilize onto a Series S Sensor Chip SA (certified) (GE Healthcare) were used. Antibodies of interest were captured onto an antigen peptide-immobilized chip, and allowed to interact to each FcγR diluted with running buffer. To regenerate and repeatedly use the chip, the antibodies captured on the chip were washed off by reacting 10 mM glycine-HCl, pH 1.5.
(§2) The FcγR-binding activity of each antibody was assessed primarily using as an indicator the FcγR-binding activity and dissociation constant for FcγR.

[2] = molecular target: T1, FcγRIIb extracellular domain with …; assay: as above
Method: as §1, §2

[3] = molecular target: T3, FcγRIa extracellular domain with C-terminal His tag (human, UniProt P12314 16-292); assay: SPR (Biacore), captured antibody, FcγRIa analyte; relative to GpH7-B3/GpL16-k0 = 100
T3 construct: extracellular domain; Expressed in FreeStyle293 cells; used as analyte in Biacore; also called FcgRI; 1a; not shown: His tag at the C terminus
T3 sequence (P12314 16-292): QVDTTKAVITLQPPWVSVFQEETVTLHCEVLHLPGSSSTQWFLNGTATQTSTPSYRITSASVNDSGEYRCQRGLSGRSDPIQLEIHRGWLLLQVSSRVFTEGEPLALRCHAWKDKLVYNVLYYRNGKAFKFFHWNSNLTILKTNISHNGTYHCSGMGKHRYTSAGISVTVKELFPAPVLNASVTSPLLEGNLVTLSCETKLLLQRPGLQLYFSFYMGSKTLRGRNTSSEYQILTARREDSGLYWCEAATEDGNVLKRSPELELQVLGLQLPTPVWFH

Binder	He/Con_3a (IIIa binding) [1]	He/Con_2b (IIb binding) [2]	Ho/Con_1a [3]
B1	44.9 % of HeCon Ab	70.4 % of HeCon Ab	–
B2	–	–	105 % of control
B3	–	–	106 % of control
B4	–	–	103 % of control
B5	91.9 % of HeCon Ab	379 % of HeCon Ab	–
B6	76.6 % of HeCon Ab	108 % of HeCon Ab	–
B7	–	–	112 % of control
B8	30.7 % of HeCon Ab	115 % of HeCon Ab	–
B9	–	–	105 % of control
B10	–	–	108 % of control
B11	–	–	108 % of control
B12	–	–	108 % of control
B13	–	–	104 % of control
B14	–	–	107 % of control
B15	66 % of HeCon Ab	210 % of HeCon Ab	–
B16	53.8 % of HeCon Ab	105 % of HeCon Ab	–
B17	–	–	107 % of control
B18	–	–	105 % of control
B19	–	–	102 % of control
B20	–	–	110 % of control
B21	55.8 % of HeCon Ab	110 % of HeCon Ab	–
B22	95.3 % of HeCon Ab	140 % of HeCon Ab	–
B23	–	–	106 % of control
